The record followed here is patent US20160002343A1 (AbbVie / Abbott, published 2016).

The target of experiment [1] is T1, mouse Transferrin Receptor overexpressed on Hek 293 cells (mouse, UniProt Q62351 1-763).
T1 construct: whole, on cells; also called mTfR; Hek293/mTfR
The experiment can be described thus: mTfR binding cell-based assay. The protocol:
(§1) Meso-scale Discovery (MSD) Electrochemiluminescence (ECL) assays to screen for antibodies or DVD-Ig proteins that bind a desired target antigen expressed on the cell surface were performed as follows: Hek 293 cells overexpressing mouse Transferrin Receptor were added onto MSD 96-well plates (MSD Cat# L11 XB-3, lot#2290-EA). The plates which were blocked using blocking buffer (30% FBS Serum (Hyclone) in PBS) at 37° C. for 1 hour. After incubating at room temperature (RT) for 30 minutes with mild agitation, plates were washed with DPBS 3 times and Abs/DVD-Ig proteins (10,000 ng/ml) were added. After incubating for 1 hour at RT, plates were washed 3 times with DPBS and 25 μl of Goat anti-human Sulfo TAG (MSD Cat# R32AC-, Lot# W001162) at 1 μg/ml was added. Following incubation at RT for 1 hour, plates were washed and MSD read buffer was added before reading on a MSD SECTOR Imager 6000. EC50 values were obtained using Xlfit4 software package.

Experiment [2] concerns the target T2, rmTfR (123-763) (mouse, UniProt Q62351 123-763).
T2 construct: range 123-763; also called recombinant mouse transferrin receptor 123-763
In words: Biacore SPR, antibody captured by anti-human IgG Fc, rmTfR (123-763) in solution. As to the method:
The BIACORE assay (Biacore, Inc, Piscataway, N.J.) was used to determine the affinity of antibodies or DVD-Ig proteins with kinetic measurements of on-rate and off-rate constants. Binding of antibodies or DVD-Ig protein to a target antigen (for example, a purified recombinant target antigen) was determined by surface plasmon resonance-based measurements with a Biacore® 1000 or 3000 instrument (Biacore® AB, Uppsala, Sweden) using running HBS-EP (10 mM HEPES [pH 7.4], 150 mM NaCl, 3 mM EDTA, and 0.005% surfactant P20) at 25° C. All chemicals were obtained from Biacore® AB (Uppsala, Sweden) or otherwise from a different source as described in the text. For example, approximately 5000 RU of goat anti-human IgG, (Fcγ), fragment specific polyclonal antibody (Pierce Biotechnology Inc, Rockford, Ill.) diluted in 10 mM sodium acetate (pH 4.5) was directly immobilized across a CM5 research grade biosensor chip using a standard amine coupling kit according to manufacturer's instructions and procedures at 25 μg/ml. Unreacted moieties on the biosensor surface were blocked with ethanolamine. Modified carboxymethyl dextran surface in flowcell 2 and 4 was used as a reaction surface. Unmodified carboxymethyl dextran without goat anti-human IgG in flow cell 1 and 3 was used as the reference surface. For kinetic analysis, rate equations derived from the 1:1 Langmuir binding model were fitted simultaneously to association and dissociation phases of all eight injections (using global fit analysis) with the use of BIAevaluation 4.0.1 software. Purified antibodies or DVD-Ig proteins were diluted in HEPES-buffered saline for capture across goat anti-human IgG specific reaction surfaces. Antibodies or DVD-Ig proteins to be captured as ligands (25 μg/ml) were injected over reaction matrices at a flow rate of 5 μl/minute. The association and dissociation rate constants, kon (M⁻¹ s⁻¹) and koff (s⁻¹) were determined under a continuous flow rate of 25 μl/minute. Rate constants were derived by making kinetic binding measurements at different antigen concentrations ranging from 10-200 nM. The equilibrium dissociation constant (M) of the reaction between antibodies or DVD-Ig proteins and the target antigen was then calculated from the kinetic rate constants by the following formula: KD=koff/kon. Binding was recorded as a function of time and kinetic rate constants were calculated.
(In general: In SPR one partner is held on a chip, and binding of the other changes the refractive index at the surface.)

Experiment [3] has as its target T1, mouse Transferrin Receptor …. In words: cell-based MSD-ECL binding, Hek293/mTfR cells. As to the method: as §1
For experiment [4] the target is unchanged. The experiment can be described thus: EC50 column of Table 13, taken as the cell-based mTfR binding assay. As to the method:
as §1

T1 sequence (Q62351 whole entry): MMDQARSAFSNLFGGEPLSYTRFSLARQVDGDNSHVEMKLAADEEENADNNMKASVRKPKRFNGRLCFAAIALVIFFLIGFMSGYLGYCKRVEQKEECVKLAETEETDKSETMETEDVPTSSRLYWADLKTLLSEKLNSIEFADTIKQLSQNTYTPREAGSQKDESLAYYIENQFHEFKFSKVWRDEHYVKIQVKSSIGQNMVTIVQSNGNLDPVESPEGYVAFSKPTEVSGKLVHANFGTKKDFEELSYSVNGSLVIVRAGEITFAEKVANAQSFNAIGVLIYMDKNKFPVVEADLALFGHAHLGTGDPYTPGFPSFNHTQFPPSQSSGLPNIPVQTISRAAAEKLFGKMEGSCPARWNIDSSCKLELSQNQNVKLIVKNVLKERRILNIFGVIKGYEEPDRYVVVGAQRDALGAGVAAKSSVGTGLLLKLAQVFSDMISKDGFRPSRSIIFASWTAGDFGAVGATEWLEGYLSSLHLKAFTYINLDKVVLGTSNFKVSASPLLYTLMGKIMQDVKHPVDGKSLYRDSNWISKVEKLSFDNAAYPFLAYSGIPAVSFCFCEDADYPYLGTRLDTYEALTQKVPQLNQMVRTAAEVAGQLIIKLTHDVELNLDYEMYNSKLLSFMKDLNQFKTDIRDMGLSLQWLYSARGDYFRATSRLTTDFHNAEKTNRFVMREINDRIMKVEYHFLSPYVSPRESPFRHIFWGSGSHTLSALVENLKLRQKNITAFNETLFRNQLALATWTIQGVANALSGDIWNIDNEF
T2 sequence (Q62351 123-763): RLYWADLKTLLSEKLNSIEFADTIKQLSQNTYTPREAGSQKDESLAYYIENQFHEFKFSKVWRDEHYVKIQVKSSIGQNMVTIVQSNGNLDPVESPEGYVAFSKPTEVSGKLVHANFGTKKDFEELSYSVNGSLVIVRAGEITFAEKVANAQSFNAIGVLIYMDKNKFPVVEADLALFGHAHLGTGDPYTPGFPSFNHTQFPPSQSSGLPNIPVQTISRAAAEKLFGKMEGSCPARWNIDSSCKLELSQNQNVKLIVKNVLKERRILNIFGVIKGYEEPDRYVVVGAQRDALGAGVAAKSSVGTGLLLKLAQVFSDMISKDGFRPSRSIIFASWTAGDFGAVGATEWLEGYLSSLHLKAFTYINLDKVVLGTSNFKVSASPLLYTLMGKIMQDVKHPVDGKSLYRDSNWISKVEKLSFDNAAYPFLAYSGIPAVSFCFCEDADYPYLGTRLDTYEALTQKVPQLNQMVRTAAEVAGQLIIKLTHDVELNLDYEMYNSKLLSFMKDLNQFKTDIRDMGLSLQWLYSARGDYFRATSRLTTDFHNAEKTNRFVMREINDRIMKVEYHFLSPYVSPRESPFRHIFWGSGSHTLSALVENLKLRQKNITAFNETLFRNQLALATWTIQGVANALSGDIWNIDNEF

B1: AB403 (antibody, V domains shown)
VH: EVQLVESGGGLVQPGGSLRLSCAASGFTFSNYGMHWIRQAPGKGLEWIAMIYYDSSKMNYADTVKGRFTISRDNAKNSLYLQMNSLRAEDTAVYYCAVPTSHYVVDVWGQGTTVTVSS
VL: EIVMTQSPATLSVSPGERATLSCQASQDIGNWLAWYQQKPGQSPRLLIYGATSLADGVPARFSGSRSGTEFTLTISSLQSEDFAVYYCLQAYNTPWTFGGGTKVEIK
notes: also called humanized variant of AB221
As for B1, in experiment [1], a half-maximal effect (EC50) was put at 0.09 nM. For the same molecule, in experiment [2], the Kd (as a rule, the constant that tells how readily two partners part at equilibrium) turned out to be 3.8 nM; the koff (commonly a measure of how fast the partners let go of each other) was 8.39e-05 s⁻¹; the kon (usually the second-order rate constant of association) was 22000 M⁻¹ s⁻¹. Also, the EC50 (in general, the concentration needed to bring the measured effect to its halfway point) in experiment [3] was found to be 0.09 nM.

B2: DVD2671 (bispecific antibody)
VH: EVQLLESGGGLVQPGGSLRLSCAASGFTFSNYGMSWVRQAPGKGLEWVASIRSGGGRTYYSDNVKGRFTISRDNSKNTLYLQMNSLRAEDTAVYYCVRYDHYSGSSDYWGQGTLVTVSSASTKGPSVFPLAPEVQLVESGGGLVQPGNSLTLSCVASGFTFSNYGMHWIRQAPKKGLEWIAMIYYDSSKMNYADTVKGRFTISRDNSKNTLYLEMNSLRSEDTAMYYCAVPTSHYVVDVWGQGVSVTVSS
VL: DVVMTQSPLSLPVTPGEPASISCKSSQSLLDSDGKTYLNWLLQKPGQSPQRLIYLVSKLDSGVPDRFSGSGSGTDFTLKISRVEAEDVGVYYCWQGTHFPRTFGQGTKVEIKRTVAAPDIQMTQSPASLSASLEEIVTITCQASQDIGNWLAWYQQKPGKSPQLLIYGATSLADGVPSRFSGSRSGTQFSLKISRVQVEDIGIYYCLQAYNTPWTFGGGTKLELK
notes: DVD-Ig; also called AbetaLSTfR
For the molecule B2, the EC50 in experiment [3] and in experiment [4] was 1.2 nM each time.
